The target in experiment [1] is T1, PDZ domain of the human MAST2 protein (human), Q6P0Q8.
T1 chain: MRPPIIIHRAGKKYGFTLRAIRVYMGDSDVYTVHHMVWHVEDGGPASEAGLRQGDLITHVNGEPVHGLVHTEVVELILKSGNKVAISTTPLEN

For experiment [2], the target named is T2, PDZ domain of the human PTPN4 protein (human), P29074.
T2 chain: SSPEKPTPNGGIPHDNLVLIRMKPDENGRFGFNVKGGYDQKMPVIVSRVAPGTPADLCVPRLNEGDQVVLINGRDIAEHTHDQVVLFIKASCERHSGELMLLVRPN
Put plainly: method not restated in the table; ITC per paragraph 50.

From US20140315822A1 come the findings set out here.

As to SWESHKSGGETRL (modifications not checked) [ATT13], the dissociation constant (Kd) in experiment [1] is 0.57 µM; in experiment [2] it was 160 µM.

What is called Kd is the free concentration of one partner at which half of the binding sites on the other are occupied at equilibrium, for simple one-to-one binding.
